Columns and labels:
[1] = target: BMP-9 receptors expressed on HepG2 cells (ATCC HB8065)
[2] = target: BMP-9 receptors expressed on HepG2 cells (ATCC HB8065); assay: 125I-BMP-9 binding to HepG2 cells
[3] = target: BMP-9 receptors expressed on HepG2 cells (ATCC HB8065); assay: Scatchard analysis of 125I-BMP-9 binding to HepG2 cells
[4] = target: BMP-9 receptors expressed on HepG2 cells (ATCC HB8065); assay: 125I-BMP-9 binding to HepG2 cells; the Kd told again in ng/ml
[5] = target: BMP-9 receptors expressed on HepG2 cells (ATCC HB8065); assay: Scatchard analysis; 2 ng/ml 125I-BMP-9 displaced by unlabelled BMP-9 on HepG2 cells, 20 hours at 4 C

- 3H-thymidine incorporation in HepG2 cells [1]: 5 fold
- ED50 of 3H-thymidine incorporation in HepG2 cells [1]: 10 ng/mL
- Kd [2]: 0.27 nM
- high affinity receptors per cell (receptors per cell) [3]: 10000
- Kd [4]: 8 ng/mL
- Kd [5]: 0.3 nM
B1: recombinant human BMP-9, CHO-derived (mature region of human BMP-9 expressed from the murine/human BMP-9 fusion plasmid) (ligand)
chain: TRECSRSCPRTAPQRQVRAVTRRTRMAHVAAGSTLARRKRSAGAGSHCQKTSLRVNFEDIGWDSWIIAPKEYEAYECKGGCFFPLADDVTPTKHAIVQTLVHLKFPTKVG
modifications: iodinated (125I) where used as the tracer; unlabelled where used as the competitor or in the proliferation assay
